Assays:
[1] = molecular target: tbb2b_human TUBB2B (UniProt Q9BVA1)
[2] = molecular target: dcc_human DCC (UniProt P43146)
Chain of dcc_human DCC (P43146 whole entry): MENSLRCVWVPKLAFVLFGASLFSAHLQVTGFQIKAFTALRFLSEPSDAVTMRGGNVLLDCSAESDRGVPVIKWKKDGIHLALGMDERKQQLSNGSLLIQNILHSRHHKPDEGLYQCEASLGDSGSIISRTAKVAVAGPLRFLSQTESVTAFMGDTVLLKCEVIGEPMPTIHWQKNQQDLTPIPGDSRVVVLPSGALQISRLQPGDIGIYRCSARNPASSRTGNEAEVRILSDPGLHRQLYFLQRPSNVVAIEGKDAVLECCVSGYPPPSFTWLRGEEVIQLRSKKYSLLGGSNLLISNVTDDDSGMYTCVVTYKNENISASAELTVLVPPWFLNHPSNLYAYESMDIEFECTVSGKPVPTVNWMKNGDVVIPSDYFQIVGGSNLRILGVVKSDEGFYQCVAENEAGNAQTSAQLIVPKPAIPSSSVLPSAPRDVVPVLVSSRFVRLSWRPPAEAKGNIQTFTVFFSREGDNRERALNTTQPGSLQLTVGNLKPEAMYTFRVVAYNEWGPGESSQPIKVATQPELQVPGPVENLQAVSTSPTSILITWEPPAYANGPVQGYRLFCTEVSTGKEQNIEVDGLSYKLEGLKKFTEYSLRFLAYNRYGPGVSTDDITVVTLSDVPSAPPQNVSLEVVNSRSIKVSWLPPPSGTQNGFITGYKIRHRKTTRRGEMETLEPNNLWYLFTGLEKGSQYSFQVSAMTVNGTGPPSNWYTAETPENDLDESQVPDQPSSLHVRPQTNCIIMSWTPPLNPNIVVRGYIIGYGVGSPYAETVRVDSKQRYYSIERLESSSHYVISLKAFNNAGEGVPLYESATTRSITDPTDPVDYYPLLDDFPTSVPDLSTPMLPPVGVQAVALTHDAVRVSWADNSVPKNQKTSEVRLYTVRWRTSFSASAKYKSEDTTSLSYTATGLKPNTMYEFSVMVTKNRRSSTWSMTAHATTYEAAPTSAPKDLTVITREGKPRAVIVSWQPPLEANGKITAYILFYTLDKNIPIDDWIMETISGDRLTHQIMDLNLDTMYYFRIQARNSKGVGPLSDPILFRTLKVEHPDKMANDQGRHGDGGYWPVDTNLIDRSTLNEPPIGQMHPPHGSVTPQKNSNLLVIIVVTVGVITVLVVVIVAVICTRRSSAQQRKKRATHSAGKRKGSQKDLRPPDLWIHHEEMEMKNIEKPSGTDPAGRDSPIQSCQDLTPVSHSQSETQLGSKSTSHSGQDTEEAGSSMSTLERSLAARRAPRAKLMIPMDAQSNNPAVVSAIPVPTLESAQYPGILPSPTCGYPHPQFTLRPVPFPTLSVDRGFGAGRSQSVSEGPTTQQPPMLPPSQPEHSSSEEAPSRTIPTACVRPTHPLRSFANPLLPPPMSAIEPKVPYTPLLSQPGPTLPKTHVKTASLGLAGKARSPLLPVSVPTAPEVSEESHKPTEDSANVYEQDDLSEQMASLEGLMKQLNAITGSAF

Chain of tbb2b_human TUBB2B (Q9BVA1 whole entry): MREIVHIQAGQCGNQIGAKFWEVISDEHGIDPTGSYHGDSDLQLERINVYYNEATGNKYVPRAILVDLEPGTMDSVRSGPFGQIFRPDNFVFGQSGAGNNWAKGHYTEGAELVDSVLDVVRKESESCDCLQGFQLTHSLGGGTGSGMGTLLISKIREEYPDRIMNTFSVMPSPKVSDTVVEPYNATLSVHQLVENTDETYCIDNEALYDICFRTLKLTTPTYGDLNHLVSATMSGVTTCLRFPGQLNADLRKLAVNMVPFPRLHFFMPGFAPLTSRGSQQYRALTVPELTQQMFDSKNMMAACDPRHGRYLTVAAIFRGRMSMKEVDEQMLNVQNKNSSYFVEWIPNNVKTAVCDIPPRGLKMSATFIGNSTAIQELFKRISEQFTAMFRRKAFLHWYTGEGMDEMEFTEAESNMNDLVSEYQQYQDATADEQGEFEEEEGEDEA

Substance	effect of a mutation on the interaction [1]	effect of a mutation on the interaction [2]
Unconventional myosin-X (Homo sapiens), Q9HD67 K1647D	disrupting interaction	
Unconventional myosin-X (Homo sapiens), Q9HD67 K1650D	disrupting interaction	
Unconventional myosin-X (Homo sapiens), Q9HD67 F2002K		disrupting interaction
